Test results: article PMC3568533
Blank lines part the entries; values can stand above or below the molecule they belong to.

Legend:
[1] = biological target: CYP3A4 wild-type (N-terminus truncated) (human) (UniProt P08684)
[2] = biological target: CYP3A4 K96A (N-terminus truncated) (human) (UniProt P08684)
[3] = biological target: CYP3A4 K421A (N-terminus truncated) (human) (UniProt P08684)
[4] = biological target: CYP3A4 wild-type (N-terminus truncated) (human) (UniProt P08684); assay: spectral titration
[5] = biological target: CYP3A4 K96A (N-terminus truncated) (human) (UniProt P08684); assay: spectral titration
[6] = biological target: CYP3A4 K421A (N-terminus truncated) (human) (UniProt P08684); assay: spectral titration
[7] = biological target: CYP3A4 wild-type (N-terminus truncated) (human) (UniProt P08684); remark: listed apart in the source
[8] = biological target: CYP3A4 K96A (N-terminus truncated) (human) (UniProt P08684); remark: listed apart in the source
[9] = biological target: CYP3A4 K421A (N-terminus truncated) (human) (UniProt P08684); remark: listed apart in the source

Ratio of Vmax + b5/− b5, testosterone 6β-hydroxylation, CYP:CPR:cyt b5 1:2:1 [1]: 1.7
Ratio of Vmax + b5/− b5, testosterone 6β-hydroxylation, CYP:CPR:cyt b5 1:2:1 [2]: 1.3
Ratio of Vmax + b5/− b5, testosterone 6β-hydroxylation, CYP:CPR:cyt b5 1:2:1 [3]: 2
Molecule: Histidine-tagged recombinant human cyt b5 (commercial holo b5) (from UniProt P00167 1-134) (natural protein)

Kd [4]: 140 nM
Kd [5]: 346 nM
Kd [6]: 287 nM
Molecule: reconstituted holo b5 (human cyt b5 made in-house) (from UniProt P00167 1-134) (natural protein)

apparent K'm,CPR of TST 6β-hydroxylation at varying CPR concentrations [7]: 41 nM
apparent K'm,CPR of TST 6β-hydroxylation at varying CPR concentrations [8]: 91 nM
apparent K'm,CPR of TST 6β-hydroxylation at varying CPR concentrations [9]: 70 nM
B1: rat cytochrome P450 reductase (enzyme)
chain: MGDSHEDTSATMPEAVAEEVSLFSTTDMVLFSLIVGVLTYWFIFRKKKEEIPEFSKIQTTAPPVKESSFVEKMKKTGRNIIVFYGSQTGTAEEFANRLSKDAHRYGMRGMSADPEEYDLADLSSLPEIDKSLVVFCMATYGEGDPTDNAQDFYDWLQETDVDLTGVKFAVFGLGNKTYEHFNAMGKYVDQRLEQLGAQRIFELGLGDDDGNLEEDFITWREQFWPAVCEFFGVEATGEESSIRQYELVVHEDMDVAKVYTGEMGRLKSYENQKPPFDAKNPFLAAVTANRKLNQGTERHLMHLELDISDSKIRYESGDHVAVYPANDSALVNQIGEILGADLDVIMSLNNLDEESNKKHPFPCPTTYRTALTYYLDITNPPRTNVLYELAQYASEPSEQEHLHKMASSSGEGKELYLSWVVEARRHILAILQDYPSLRPPIDHLCELLPRLQARYYSIASSSKVHPNSVHICAVAVEYEAKSGRVNKGVATSWLRAKEPAGENGGRALVPMFVRKSQFRLPFKSTTPVIMVGPGTGIAPFMGFIQERAWLREQGKEVGETLLYYGCRRSDEDYLYREELARFHKDGALTQLNVAFSREQAHKVYVQHLLKRDREHLWKLIHEGGAHIYVCGDARNMAKDVQNTFYDIVAEFGPMEHTQAVDYVKKLMTKGRYSLDVWS
